A short description of this data set: protein stability index of a GFP-peptide fusion (GPS, HEK-293T) (PSI 1-6); higher = more stable.
Setting [1] is: treatment: DMSO, c terminus: a fixed tail appended.
Where [2] appears, read: treatment: MLN4924 1 uM, 8 h, c terminus: a fixed tail appended.
Where [3] appears, read: treatment: DMSO, c terminus: native.
The mark [4] stands for this setting: treatment: MLN4924 1 uM, 8 h, c terminus: native.

± gives the standard deviation.
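Note: 24-mer peptide tiles fused after GFP, lentivirally expressed, FACS-sorted into six equal bins by GFP/DsRed ratio, decoded by Illumina sequencing, PSI is the read-weighted mean bin number.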

As for QRRPRVLSCLHSVCEQCLQILYES [RNF208], the protein stability index runs as follows: under setting [1], 2.32 ± 0.17; under setting [2], 2.64 ± 0.54.
In the same order, the values of QRRTEASRNAADKERAAGGGAGSS [GOLPH3] are 5.54 ± 0.23 and 5.36 ± 0.15.
In the same order, the values of QRVPKVLVENAKNFPQCVLEISDQ [EFHC1] are 3.49 ± 0.19 and 3.81 ± 0.29.
Regarding QRYEHGRTLKSYLGLTNQSRRYNR [ZNF649], the protein stability index reads like this: under setting [1], 3.39 ± 0.21; under setting [2], 3.59 ± 0.29.
On to QSSGKILLCPLCQEEEQAETPMAP [TRIM15], for which the protein stability index worked out at 3.79 ± 0.36 under setting [1] and 4.28 ± 0.31 under setting [2].
Consider QSYPSQDKPLPPPPPGSLSRTQEP [SOAT2], for which the protein stability index was determined as 5.2 ± 0.41 under setting [1] and 5.08 ± 0.24 under setting [2].
In the same order, the values of QTIQKTTTRRIVDGKVVSETNDTK [KRT18] are 5.34 ± 0.19 and 5.31 ± 0.23.
In the same order, the values of QTSAFARQPRDELERVRVSCTIIF [TMEM175] are 2.46 ± 0.55 and 2.62 ± 0.61.
In the same order, the values of QVLFDKVCEHLNLLEKDYFGLTYR [EPB41L3] are 2.4 ± 0.13 and 2.55 ± 0.28.
With QWIEVDARRLTRFTGVITQGRNSL [CPXM2], the protein stability index reads like this: under setting [1], 2.91 ± 0.6; under setting [2], 2.52 ± 0.17.
In the same order, the values of QYQQVPVEIVKSDFHKPFLGGFRH [IQUB] are 2.7 ± 0.36 and 2.99 ± 0.49.
In the same order, the values of RAGTEPSDAIRVVNAVLTQIDQIK [TRIP13] are 3.37 ± 0.15 and 3.04 ± 0.27.
For the sequence RAMKIPFTNDKIINLPVEEFNELL [NFE2L1], the protein stability index was found to be 2.87 ± 0.2 under setting [1] and 3.01 ± 0.67 under setting [2].
In the same order, the values of RANPCLSSSNEHAAPAAKTRKQAA [ELOA2] are 5.08 ± 0.16 and 5.18 ± 0.26.
Turning to RAPSRRHGVRAKVQPQARKKEMEM [CPN1], the protein stability index is, setting by setting: under setting [1], 4.39 ± 0.26; under setting [2], 4.64 ± 0.082.
RAYQYTTLTSVQLLDCFGIPVLMA [SLC35F2]: the protein stability index runs as follows: under setting [1], 3.13 ± 0.64; under setting [2], 2.66 ± 0.85.
For RCGVGVSVLDDLLYAVGGHDGSSY [KLHL20] the same measures were 2.36 ± 0.38 and 2.13 ± 0.42.
In the same order, the values of RCVKSIIRQVLQGLDYLHSKCKII [SRPK2] are 2.73 ± 0.88 and 2.79 ± 0.59.
For REMSKTFIIGELHPDDRPKLNKPP [CYB5A] the same measures were 3.95 ± 0.23 and 4.05 ± 0.28.
As to RENEELSARYLSQCQEAEQARAEL [FBF1], the protein stability index reads like this: under setting [1], 5.38 ± 0.16; under setting [2], 5.34 ± 0.09.
For RENILVSLGAVGEGFHNYHHSFPY [SCD] the same measures were 2.22 ± 0.13 and 2.11 ± 0.14.
Consider REPDWGDGDAPGSLLPAQVAACAQ [CEBPD], for which the protein stability index is, setting by setting: under setting [1], 5.04 ± 0.28; under setting [2], 4.99 ± 0.47.
In the same order, the values of RFAWPKVLKISYKRNNFYIKIRPG [EPB41L3] are 2.89 ± 0.63 and 2.2 ± 0.82.
In the same order, the values of RFYFENLLAKNSKPIHTTILNPHV [CAMK2B] are 2.2 ± 0.11 and 2.23 ± 0.23.
For RGCLHSHGLQEGKDLFTQRQNSAP [CDC25A] the same measures were 3.72 ± 0.36 and 3.62 ± 0.33.
RGEQTTSQVSWEQDLKLFLQEPGV [FCHSD1]: the protein stability index reads like this: under setting [1], 4.01 ± 0.27; under setting [2], 4.06 ± 0.43.
Take RGFSGGILAFLVLEAVAGALVVAL [TSPAN10]: the protein stability index under setting [1] amounted to 2.78 ± 0.9 and the protein stability index under setting [2] was 2.43 ± 0.41.
For RGGDGEVASAPLQPPVPSLSEVKP [TRADD], the protein stability index was determined as 5.34 ± 0.36 under setting [1] and 5.04 ± 0.58 under setting [2].
In the same order, the values of RGLIPVKRGPSSRSGGPPPKKSAP [RBMY1A1] are 4.3 ± 0.58 and 4.73 ± 0.28.
Regarding RIDGKLDSPSRSPSKVEVTEKTTT [C2CD2L], the protein stability index was 5.42 ± 0.21 under setting [1] and 5.46 ± 0.11 under setting [2].
Turning to RKPDPMCVFTYVQSLYNHLRRFE [SMTNL2], the protein stability index is, setting by setting: under setting [3], 2.74 ± 0.62; under setting [4], 2.72 ± 0.36.
The sequence RKPDYTAYVAMIPQCIKEEDTPSD [ATF4] registered a protein stability index under setting [1] of 4.47 ± 0.25 and a protein stability index under setting [2] of 4.62 ± 0.21.
In the case of RKSSFAFYQAVRDLLPVWLLEDMR [ANKRD9], the protein stability index is, setting by setting: under setting [1], 3.03 ± 0.99; under setting [2], 2.21 ± 0.38.
Regarding RLAELEAQVRKLELERAQHELLLG [FBF1], the protein stability index reads like this: under setting [1], 2.97 ± 0.22; under setting [2], 2.87 ± 0.14.
In the same order, the values of RLASFDSSGKLICSRTTGYQILTL [GMCL1] are 2.63 ± 0.93 and 2.55 ± 0.19.
In the same order, the values of RLEELTNRLASLQQENKVLKIELE [CCDC6] are 3.65 ± 0.23 and 3.78 ± 0.38.
As to RLICDFPFDGLLEERALLLGRMGK [VPS39], the protein stability index runs as follows: under setting [1], 2.28 ± 0.25; under setting [2], 2.28 ± 0.12.
For RLINHSKCGNCQTKLHDIDGVPHL [KMT5A] the same measures were 2.67 ± 0.45 and 2.64 ± 0.36.
For RLKKVENIKIWLSLRSYLKRRGPQ [PHTF1] the same measures were 2 ± 0.65 and 2.25 ± 0.64.
For RLLSVPELCHHVAEVWVSGTIFIR [RETREG3] the same measures were 2.96 ± 0.4 and 2.69 ± 0.53.
Turning to RLMSFRPICSANHKESKMTIFEKE [CRYBA1], the protein stability index runs as follows: under setting [1], 3.14 ± 0.16; under setting [2], 3.5 ± 0.21.
In the same order, the values of RLRQLKVRNDSCVVHEDFREDILS [PKD2L1] are 3.47 ± 0.43 and 3.65 ± 0.43.
For RLSNNQRYLFLDGDSHYEIEIVHI [ZFYVE21] the same measures were 3.21 ± 0.56 and 2.21 ± 0.53.
For RLVQLLVRAHQDTQRRTSMGGTQQ [CTNNB1] the same measures were 2.23 ± 0.25 and 2.54 ± 0.54.
Consider RMLQREGCFRSQGASLRLAVEDGL [M1AP], for which the protein stability index is, setting by setting: under setting [1], 3.1 ± 0.22; under setting [2], 2.94 ± 0.14.
For RMQALLIRERILGPSHPDTSYYIR [FEM1C] the same measures were 2.2 ± 0.17 and 2.18 ± 0.44.
For RMYCSDLLNPNLKDTVICAMKITQ [SPACA3] the same measures were 2.15 ± 0.42 and 2.05 ± 0.17.
In the same order, the values of RNTPIEALCENFPEEMATYLRYVR [CSNK1G1] are 2.84 ± 0.26 and 2.9 ± 0.56.
In the case of RNTSWGVVQEPPGRASRFLQSISW [TLE6], the protein stability index runs as follows: under setting [1], 2.47 ± 0.28; under setting [2], 2.46 ± 0.3.
For RNVTGTPLTGDKDDEEVDTHFASQ [ADAMTSL2] the same measures were 5.5 ± 0.22 and 5.32 ± 0.27.
For RPEELLQMELLLVNKLKWNLAAMT [CCND1] the same measures were 2.68 ± 0.71 and 2.52 ± 0.66.
Consider RPLARPIKPNEILPPEKGREVAKE [RHOBTB2], for which the protein stability index runs as follows: under setting [1], 4.91 ± 0.16; under setting [2], 4.68 ± 0.66.
In the same order, the values of RPMSEPGAGAGSSLLDVAEPGGPG [SMAD6] are 5.11 ± 0.3 and 5.39 ± 0.16.
In the same order, the values of RQDPRPHGPQLPTGIEGNWGRLLE [ZBED2] are 3.68 ± 0.2 and 3.54 ± 0.32.
As for RQEYQKALQEYSSISEKLSSTNFA [C8orf76], the protein stability index is, setting by setting: under setting [1], 3.48 ± 0.26; under setting [2], 3.69 ± 0.18.
For RQIVSGLKYLHEQEILHRDLKLGN [PLK2] the same measures were 2.52 ± 0.21 and 2.7 ± 0.48.
Regarding RQKREAAARKKYNLLQDSSTSDSD [C18orf25], the protein stability index amounted to 5.17 ± 0.25 under setting [1] and 5.18 ± 0.15 under setting [2].
In the same order, the values of RQMHLARFLRMLLRLADEFGVAVV [RAD51] are 2.55 ± 0.41 and 2.68 ± 0.28.
For RQRCMPEEDLQSQSETQGLEGAQA [MAGEA10] the same measures were 5.44 ± 0.28 and 5.44 ± 0.082.
In the same order, the values of RREAVQRGRMPPTQPTHGQFALTN [NR2F2] are 3.9 ± 0.29 and 3.99 ± 0.25.
In turn, RRERNNIAVRKSRDKAKMRNLETQ [CEBPB] gave a protein stability index under setting [1] of 4.28 ± 0.18 and a protein stability index under setting [2] of 4.5 ± 0.19.
For RRMAESLRIPEGPIDQGPAIGRVR [FUT8] the same measures were 4.22 ± 0.17 and 4.43 ± 0.18.
In the same order, the values of RRTAENKLDTKYPYVCHAELNAIM [DCTD] are 2.29 ± 0.15 and 2.37 ± 0.49.
Regarding RRVWSPPRVHKVEMGFGGGGGAN [ZBTB22], the protein stability index is, setting by setting: under setting [3], 4.13 ± 0.3; under setting [4], 3.92 ± 0.14.
Regarding RSAMSGASQPRGPALLFPATRGVP [TRIB1], the protein stability index amounted to 3.554 ± 0.019 under setting [1] and 4.14 ± 0.29 under setting [2].
Consider RSCGGGVTSQERHCLQQRRKSVPG [ADAMTSL2], for which the protein stability index under setting [1] came out at 4.58 ± 0.25.
Consider RSKESKDCSGLVLLCLFFGIPWEA [PCDHGA10], for which the protein stability index under setting [1] was 3.15 ± 0.37 and the protein stability index under setting [2] stood at 2.48 ± 0.61.
In the same order, the values of RSRSLDIQPSSEGLGPTSEPFPSS [SPAG8] are 5.46 ± 0.23 and 5.52 ± 0.094.
For RSSEFYRVTTEQYQKAAEEVEAKF [CHCHD3] the same measures were 4.88 ± 0.32 and 4.78 ± 0.074.
For RTFGPPPSLSPGAFSYSSSSRFSS [PRPH] the same measures were 3.42 ± 0.21 and 3.8 ± 0.3.
In the case of RTQEEKLEHVRALIKKYSDHLENV [TRIM55], the protein stability index under setting [1] stood at 3.24 ± 0.31 and the protein stability index under setting [2] stood at 3.56 ± 0.27.
For the sequence RTVAIWDVAEGYRKLSLKGHNDWV [WDR88], the protein stability index under setting [1] was found to be 2.46 ± 0.38 and the protein stability index under setting [2] came to 2.54 ± 0.44.
